This note sets out measurements from the RNAGym collection of RNA variant scans (doi:10.7554/elife.80360).

B1: HDV Ribozyme (parent)
chain: GGCCGGCAUGGUCCCAGCCUCCUCGCUGGCGCCGGCUGGGCAACAUUCCGAGGGGACCGUCCCCUCGGUAAUGGCGAAUGGGACCCA

The variants in this data set derive from B1. Briefly: self-cleavage, relative activity (ratio to wild type); higher = more cleavage; co-transcriptional.
In the case of G54C G68A, the self-cleavage stood at 0.858.
Under G35U G38U stands 0.
For C4G G67U, the self-cleavage was found to be 0.227.
As to G52U G59A, the self-cleavage was determined as 0.982.
As to C49G A51C, the self-cleavage was 0.623.
The same measure for G2A G28U: 0.0364; for C19G U69C: 0; for G10C U79C: 0.132.
The same measure for G34C G55A: 0.147; for G17A C44A: 0.306; for C24U C32G: 0.
For the variant C3U C26A, the self-cleavage is 0.923.
Consider C49G G54C, for which the self-cleavage was found to be 0.762.
In the case of A8C A16C, the self-cleavage was determined as 1.07.
Turning to C19A A77G, the self-cleavage came out at 0.0302.
G31A U47G: the self-cleavage came out at 0.192.
For the variant U65G A87G, the self-cleavage was determined as 0.973.
Regarding C4A G80A, the self-cleavage turned out to be 0.0519.
As to G11A G81A, the self-cleavage stood at 0.0639.
The same measure for G17C C49G: 0.107; for G25U C62U: 0.0615; for C49U G76C: 0.867.
As to C75A A87C, the self-cleavage is 0.202.
Take G5U U72G: the self-cleavage was 0.277.
Take C24G G54A: the self-cleavage was determined as 0.
Turning to C7G G31C, the self-cleavage stood at 0.95.
Under G40U A83G stands 0.597; under A8G U20G, 0.151; under G25A A42U, 0.
Take C21A U47G: the self-cleavage was determined as 0.0504.
Take A43C A77G: the self-cleavage was found to be 0.317.
On to A8G C36U, for which the self-cleavage worked out at 0.727.
With U60G G68U, the self-cleavage turned out to be 0.762.
The same measure for A78C C85G: 0.0852; for G54A U60A: 0.758; for G1A A42U: 0.123.
As to U9G C61U, the self-cleavage was determined as 1.05.
On to C15A G25A, for which the self-cleavage came out at 0.0504.
Take C48G A71U: the self-cleavage turned out to be 0.554.
G1A C64G: the self-cleavage is 0.095.
For G10C A56U, the self-cleavage turned out to be 0.957.
G10C A56G: the self-cleavage was 0.532.
Consider C15A C26G, for which the self-cleavage amounted to 0.415.
As to C15A C26A, the self-cleavage came to 0.529.
In the case of G6U U27G, the self-cleavage worked out at 0.172.
Under C41G C62A stands 0.814; under G6U C85U, 0.646; under G67C U69A, 0.96.
The same measure for G11A G50C: 0.439; for U9G G50U: 1.15.
As for A43C U60A, the self-cleavage is 0.249.
G28A A77G: the self-cleavage was 0.111.
Consider C7U C14U, for which the self-cleavage was 0.785.
For G29A U72G, the self-cleavage came to 0.0923.
As for G10C C86A, the self-cleavage is 1.04.
On to C3A C44G, for which the self-cleavage was found to be 0.0615.
The same measure for C41A G74U: 0.513; for U9A G29C: 0; for U23C C75G: 0.148.
Consider G10C U72G, for which the self-cleavage came out at 0.369.
Turning to C26G G28A, the self-cleavage was found to be 0.0449.
Under C85G C86A stands 0.763; under G5U C57A, 0.383; under G59C A71U, 1.06.
In the case of U47C G59C, the self-cleavage is 1.09.
Turning to U37C C41G, the self-cleavage worked out at 1.11.
For the variant A56G A77U, the self-cleavage was 0.739.
Under G68U stands 0.932; under G17C A51U, 0.443.
The same measure for A8U G35C: 0.0639; for U23A C36U: 0.671; for U9A G39C: 0.178.
With U37A G80C, the self-cleavage stood at 0.163.
The same measure for G10U G39A: 0.199; for U60C A70U: 1.15.
Consider G53A C75A, for which the self-cleavage was determined as 0.225.
As for C13U G28C, the self-cleavage was found to be 0.
With U69G G74A, the self-cleavage was 0.614.
C18G C19G: the self-cleavage amounted to 0.
For C3U G82A, the self-cleavage stood at 0.283.
Under A77U C85U stands 0.96.
G74C C85G: the self-cleavage came to 0.0791.
On to U37G C64U, for which the self-cleavage came to 0.
As to C3G C26A, the self-cleavage is 0.669.
Turning to C75U G81C, the self-cleavage was 0.16.
Under C22U G76A stands 0.643.
Take C49A G55A: the self-cleavage turned out to be 0.816.
Under A51C A78U stands 0.133; under G6U U37G, 0.0554; under U46C C58G, 0.582.
Under G59C G80A stands 0.409; under G28A C36U, 0.0811.
Regarding A8C G68C, the self-cleavage is 0.604.
Turning to G5U A16U, the self-cleavage was determined as 0.0978.
Under C49U G73A stands 0.716.
Turning to C30G G54A, the self-cleavage was determined as 0.0811.
Take C7A C66A: the self-cleavage is 0.539.
Consider G34A G38C, for which the self-cleavage stood at 0.166.
For the variant C18A G52A, the self-cleavage came to 0.196.
Regarding C32U G76U, the self-cleavage turned out to be 0.751.
Under A70G C86G stands 1.03; under G2U C57G, 0.109.
G17C G73U: the self-cleavage worked out at 0.0852.
G17C G73A: the self-cleavage is 0.156.
In the case of C7A G54C, the self-cleavage worked out at 0.8.
As to C24G G39A, the self-cleavage was found to be 0.0845.
In the case of G31A G67A, the self-cleavage was determined as 0.44.
As for G53C U79C, the self-cleavage was found to be 0.47.
Take C14G A42G: the self-cleavage stood at 0.
Under U60C G67C stands 0.554; under C7G A70G, 0.256.
Regarding C15U A83U, the self-cleavage amounted to 0.26.
For the variant C48A G76U, the self-cleavage came to 1.03.
U60A C84G: the self-cleavage came to 0.475.
A16C C49G: the self-cleavage was 0.923.
For the variant A16C C49U, the self-cleavage amounted to 0.617.
C44A G74U: the self-cleavage amounted to 0.702.
Consider G17C A45C, for which the self-cleavage came to 0.0519.
Take C32G A43U: the self-cleavage was determined as 0.
Under C7G G59U stands 0.237.
Take A16C G53C: the self-cleavage amounted to 0.475.
For the variant C32U G38C, the self-cleavage stood at 0.233.
Consider A71U G81A, for which the self-cleavage was determined as 0.277.
Consider G5A C44U, for which the self-cleavage was 0.0627.
On to G39A G82U, for which the self-cleavage turned out to be 0.0536.
Consider U27G C48A, for which the self-cleavage amounted to 0.72.
Under C49U G81U stands 0.314; under A45C U79A, 0.208; under G73U C75A, 0.107.
On to C30G U60G, for which the self-cleavage is 0.0386.
On to G31C C63U, for which the self-cleavage stood at 0.369.
The same measure for C13G A78G: 0.111; for C7U G67A: 0.904.
The same measure for U27G C84G: 0.378; for U27G C84A: 0.831; for G34A A70G: 0.233.
As to C24A A51G, the self-cleavage turned out to be 0.665.
For U23C U27G, the self-cleavage was 1.06.
The same measure for A78C G80A: 0.174; for C41A U65A: 0.914; for G1U U60G: 0.443.
The same measure for A51U G76U: 1.11; for A42U A56U: 0.577.
For the variant U9G C33U, the self-cleavage was found to be 0.87.
With U72C A83U, the self-cleavage amounted to 0.128.
Consider G38A U47G, for which the self-cleavage amounted to 0.116.
The same measure for C64G G82U: 0.228.
With C33G A70C, the self-cleavage came to 0.145.
Take G31C G76C: the self-cleavage is 0.609.
On to G80A A83C, for which the self-cleavage worked out at 0.135.
Regarding G53A G73A, the self-cleavage stood at 0.44.
The same measure for C75G C86U: 0.156.
Regarding C18A C26A, the self-cleavage is 0.244.
Turning to G52U G54A, the self-cleavage was found to be 0.653.
As for U9C C66A, the self-cleavage stood at 1.04.
Consider U27A U47C, for which the self-cleavage turned out to be 0.391.
Consider G6A U47A, for which the self-cleavage is 0.35.
The same measure for G6A U72A: 0.0875; for C19A C22U: 0.0203; for A8C C30A: 0.0462.
Under C58U G67C stands 1.07; under C21A G68C, 0.
For C18G G50A, the self-cleavage amounted to 0.138.
For the variant G34C G81C, the self-cleavage stood at 0.115.
As to C3U C7U, the self-cleavage worked out at 0.529.
In the case of G11C G67A, the self-cleavage turned out to be 0.248.
U60C C84U: the self-cleavage is 0.918.
